Test results reported in publication PMC10869273 (Nature Biotechnology, 2023).
Where a chain is given by its changes, count along the chain named. Names and notes keep the numbering of the source.

Columns and labels:
[1] = molecular target: SARS-CoV-2 Beta-variant Spike with six stabilizing proline substitutions (S-6P) (SARS-CoV-2 Beta variant (B.1.351), strain)
[2] = molecular target: SARS-CoV-2 Omicron BA.1 receptor-binding domain (RBD) (SARS-CoV-2 Omicron BA.1, strain, biotin on the AviTag (expressed in the presence of BirA)); test: BLI; details: both partners purified

B1: REGN10987 VH R16G-V108D (antibody, V domains shown)
VH: QVQLVESGGGVVQPGGSLRLSCAASGFTFSNYAMYWVRQAPGKGLEWVAVISYDGSNKYYADSVKGRFTISRDNSKNTLYLQMNSLRTEDTAVYYCASGSDYGDYLLDYWGQGTLVTVSS
VL: QSALTQPASVSGSPGQSITISCTGTSSDVGGYNYVSWYQQHPGKAPKLMIYDVSKRPSGVSNRFSGSKSGNTASLTISGLQSEDEADYYCNSLTSISTWVFGGGTKLTVL
Does B1 bind [1]?
Result: binds

B2: another design of REGN10987 (5.1-fold improvement for the Omicron BA.1 RBD), Fab (Fab, V domains shown)
VH: B1 VH with D108V
VL: B1 VL with N91C
How did the “fold improvement in Fab Kd over wild-type” value [2] turn out when B2 was run?
Its value is 5.1 fold.

B3: best design of C143, IgG (antibody, V domains shown)
VH: EVQLVESGGGLVQPGGSLRLSCAASGFSVSTKYMTWVRQAPGKGLEWVSVLYSGGSDYYADSVKGRFTISRDNSKNALYLQMNSLRVEDTGVYYCARDSSEVRDHPGHPGRSVGAFDIWGQGTMVTVSS
VL: QSALTQPASVSGSPGQSITISCTGTSNDVGSYNLVSWYQQYPGKAPKLLIFEVTKRSSGISNRFSGSKSGNTASLTISGLQGEDEADYYCCSYAGASTFVFGGGTKLTVL
With B3 as the binder, how does the “fold improvement in apparent Kd over wild-type” value [2] read?
Its value is 3.8 fold.
